Data reported in patent US20100278929A1.
Positions count from the first letter of the chain named.

Target: RSV (Long strain) F protein on infectious virus (respiratory syncytial virus (Long strain)) (UniProt P12568)
Assay: cell-based or functional assay

RSV (Long strain) F protein on infectious virus (respiratory syncytial virus (Long strain)), sequence (P12568 26-574): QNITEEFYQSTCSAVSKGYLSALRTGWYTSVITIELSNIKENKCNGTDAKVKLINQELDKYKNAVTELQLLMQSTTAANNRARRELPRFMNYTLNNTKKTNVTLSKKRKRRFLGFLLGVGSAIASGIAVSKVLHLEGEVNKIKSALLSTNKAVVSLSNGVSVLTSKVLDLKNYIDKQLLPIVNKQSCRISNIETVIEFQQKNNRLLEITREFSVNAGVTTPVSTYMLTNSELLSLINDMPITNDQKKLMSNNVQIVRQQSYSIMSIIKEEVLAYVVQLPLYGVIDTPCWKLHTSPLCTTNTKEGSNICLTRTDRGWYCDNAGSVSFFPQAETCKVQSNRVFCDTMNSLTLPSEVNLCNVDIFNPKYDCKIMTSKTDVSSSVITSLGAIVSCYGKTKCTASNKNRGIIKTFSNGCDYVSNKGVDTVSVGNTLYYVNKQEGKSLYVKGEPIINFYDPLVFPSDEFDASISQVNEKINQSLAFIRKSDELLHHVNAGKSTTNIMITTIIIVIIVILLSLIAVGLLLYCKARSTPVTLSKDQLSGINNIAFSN

B1: A17d4(1) monoclonal antibody (antibody, V domains shown)
VH: QVTLRESGPALVKPTQTLTLTCTFSGFSLSTAGMSVGWIRQPPGKALEWLADIWWDGKKSYNPSLKDRLTISKDTSKNQVVLKVTNMDPADTATYYCARDMIFNFYFDVWGQGTTVTVSS
VL: DIQMTQSPSTLSASVGDRVTITCLPSSRVGYMHWYQQKPGKAPKLLIYDTMYQSSGVPSRFSGSGSGTEFTLTISSLQPDDFATYYCFQGSGYPFTFGGGTKVEIK
- Fold Difference (Control IC50), against palivizumab: 15 fold
- Fold Difference (Curve IC50), against palivizumab: 13 fold

B2: A12a6 Fab fragment (Fab, V domains shown)
VH: B1 VH with S60D
VL: B1 VL with L24S, P25A, M51F, Y52K, Q53L
- Fold Difference (Control IC50), against palivizumab: 17 fold
- Fold Difference (Curve IC50), against palivizumab: 16 fold

B3: A8c7 monoclonal antibody (antibody, V domains shown)
VH: B1 VH with G57D, F105W
VL: B1 VL with L24S, M51R
- Fold Difference (Control IC50), against palivizumab: 14 fold
- Fold Difference (Curve IC50), against palivizumab: 13 fold

B4: A13a11 Fab fragment (Fab, V domains shown)
VH: B1 VH with G57D, S60H, F105W
VL: B1 VL with L24S, M51Y, Y52R, Q53H
- Fold Difference (Control IC50), against palivizumab: 5 fold
- Fold Difference (Curve IC50), against palivizumab: 4 fold

B5: A1e9 Fab fragment (Fab, V domains shown)
VH: B1 VH with S60H, F105W
VL: B1 VL with L24S, P25L, M51F, Y52K, Q53L
- Fold Difference (Control IC50), against palivizumab: 4 fold
- Fold Difference (Curve IC50), against palivizumab: 3 fold

B6: P12f4 Fab fragment (Fab, V domains shown)
VH: B1 VH with A32P, S60H
VL: B1 VL with L24S, P25L, M51R, Y52G, Q53L, S54P
- Fold Difference (Control IC50), against palivizumab: 15 fold
- Fold Difference (Curve IC50), against palivizumab: 10 fold

B7: A8c7 Fab fragment (Fab, V domains shown)
VH: B1 VH with G57D, F105W
VL: B1 VL with L24S, M51R
- Fold Difference (Control IC50), against palivizumab: 34 fold
- Fold Difference (Curve IC50), against palivizumab: 3 fold

B8: P12f2 monoclonal antibody (antibody, V domains shown)
VH: B1 VH with A32P, G57D, S60H
VL: B1 VL with L24S, P25L, M51F, Q53L
- Fold Difference (Control IC50), against palivizumab: 24 fold
- Fold Difference (Curve IC50), against palivizumab: 20 fold

B9: A17d4(1) Fab fragment (Fab, V domains shown)
VH: B1 VH
VL: B1 VL
- Fold Difference (Control IC50), against palivizumab: 31 fold
- Fold Difference (Curve IC50), against palivizumab: 25 fold

B10: A4B4 monoclonal antibody (antibody, V domains shown)
VH: B1 VH with G57D, S60H
VL: B1 VL with L24S, P25A, M51F, Y52F, Q53L, S54D
- Fold Difference (Control IC50), against palivizumab: 35 fold
- Fold Difference (Curve IC50), against palivizumab: 27 fold

B11: A13c4 Fab fragment (Fab, V domains shown)
VH: B1 VH
VL: B1 VL with L24S, P25L
- Fold Difference (Control IC50), against palivizumab: 21 fold
- Fold Difference (Curve IC50), against palivizumab: 17 fold

B12: A12a6 monoclonal antibody (antibody, V domains shown)
VH: B1 VH with S60D
VL: B1 VL with L24S, P25A, M51F, Y52K, Q53L
- Fold Difference (Control IC50), against palivizumab: 15 fold
- Fold Difference (Curve IC50), against palivizumab: 13 fold

B13: A1h5 Fab fragment (Fab, V domains shown)
VH: B1 VH with S60H, F105W
VL: B1 VL with L24S, P25L, R28S, M51F, Y52F, Q53H, S54R
- Fold Difference (Control IC50), against palivizumab: 3 fold
- Fold Difference (Curve IC50), against palivizumab: 2 fold

B14: A1e9 monoclonal antibody (antibody, V domains shown)
VH: B1 VH with S60H, F105W
VL: B1 VL with L24S, P25L, M51F, Y52K, Q53L
- Fold Difference (Control IC50), against palivizumab: 8 fold
- Fold Difference (Curve IC50), against palivizumab: 7 fold

B15: A4B4 Fab fragment (Fab, V domains shown)
VH: B1 VH with G57D, S60H
VL: B1 VL with L24S, P25A, M51F, Y52F, Q53L, S54D
- Fold Difference (Control IC50), against palivizumab: 13 fold
- Fold Difference (Curve IC50), against palivizumab: 11 fold

B16: A13c4 monoclonal antibody (antibody, V domains shown)
VH: B1 VH
VL: B1 VL with L24S, P25L
- Fold Difference (Control IC50), against palivizumab: 14 fold
- Fold Difference (Curve IC50), against palivizumab: 12 fold

B17: P11d4 monoclonal antibody (antibody, V domains shown)
VH: B1 VH with A32P, S60H, F105W
VL: B1 VL with L24S, Y52R, Q53L, S54A
- Fold Difference (Control IC50), against palivizumab: 19 fold
- Fold Difference (Curve IC50), against palivizumab: 21 fold

B18: P12f2 Fab fragment (Fab, V domains shown)
VH: B1 VH with A32P, G57D, S60H
VL: B1 VL with L24S, P25L, M51F, Q53L
- Fold Difference (Control IC50), against palivizumab: 16 fold
- Fold Difference (Curve IC50), against palivizumab: 11 fold

B19: P12f4 monoclonal antibody (antibody, V domains shown)
VH: B1 VH with A32P, S60H
VL: B1 VL with L24S, P25L, M51R, Y52G, Q53L, S54P
- Fold Difference (Control IC50), against palivizumab: 23 fold
- Fold Difference (Curve IC50), against palivizumab: 19 fold
